Source: article PMC4937415, “Peroxiredoxin 1 interacts with and blocks the redox factor APE1 from activating interleukin-8 expression” (Scientific Reports, 2016)

Biological target: the molecule itself
Experiment: SEC; as a6, but HeLa cells treated with 20 μM E3330 for 4 h; fractions 23 to 28 probed with anti-PRDX1

B1: Peroxiredoxin 1 (PRDX1) (natural protein, human (endogenous in HeLaS and HeLa), UniProt Q06830 1-199, looked up)
chain: MSSGNAKIGHPAPNFKATAVMPDGQFKDISLSDYKGKYVVFFFYPLDFTFVCPTEIIAFSDRAEEFKKLNCQVIGASVDSHFCHLAWVNTPKKQGGLGPMNIPLVSDPKRTIAQDYGVLKADEGISFRGLFIIDDKGILRQITVNDLPVGRSVDETLRLVQAFQFTDKHGEVCPAGWKPGSDTIKPDVQKSKEYFSKQK
notes: endogenous PRDX1 of HeLaS and HeLa cells; monomer 22 kDa, dimeric form 44 kDa on blots; source: endogenous, HeLaS nuclear, cytosolic and total extracts; endogenous, HeLa nuclear extract
  stoichiometry N: 2
